Results on one substance are retold here after patent publication US8821943B2, “Methods and compositions for targeted delivery of therapeutic agents” (Board of Regents of the University of Nebraska, priority 2006, dated 2014).

This data set can be described thus: Particle size, polydispersity and zeta-potential by dynamic light scattering. The format is physicochemical. As to the method: Nanoparticle carrier particles were formed by the methods of the preceding Example, and characterized as follows. The particle size and the zeta-potential were measured using Zeta Plus zeta-potential analyzer (Brookhaven Instruments Ltd., New York, N.Y.), which employs the dynamic light scattering technique for particle size measurement. The particle size and zeta-potential measurements were made after 1:1000 dilution of particle stock in filtered deionized water. Further, the particles were visualized using a transmission electron microscope (TEM). The carbon-coated grids were floated on a suspension droplet of plain or functionalized nanoparticles on a flexible plastic film (Parafilm, Pechiney Plastic Packaging, Neenah, Wis.) to allow the adsorption of nanoparticles onto the grid. After drying the particles, uranyl acetate was added as a negative stain to the carbon grid and allowed to react with the particles. This procedure makes the particles electron dense, allowing their visualization using an electron microscope. The particles were photographed using EM410 Phillips electron microscope (Eindhoven, The Netherlands) set at 60 kV and a magnification of 153000×.
Characterization of particles: The particle size and the zeta-potential were measured using ZetaPlus® zeta-potential analyzer, Brookhaven Instruments Ltd. (New York, N.Y.), which employs the dynamic light scattering technique for particle size measurement. The particle size and zeta-potential measurements were carried out after 1:1000 dilution of particle stock in filtered deionized water before lyophilization in filtered deionized water. The effective diameter of conjugated nanoparticles was higher than that of unconjugated nanoparticles.
Particle Size Analysis: Particle size and zeta-potential of the nanoparticles before and after conjugation following lyophilization were measured in double distilled water (100 μl of particle/1 ml of water) using dynamic light scattering (DLS). After lyophilization the plasmid loaded particles were weighed (1 mg) into glass Kimble tubes. To each tube, 1 ml of double distilled water was added and vortexed at high speed (Vortex Genie, Scientific Industries, Bohemia, N.Y.) till the particles were resuspended. The particle size and zeta potential was determined using dynamic light scattering after dilution (1:10 in double distilled water) (Brookhaven Instruments Corp., Holtsville, N.Y.). Nanoparticle size after lyophilization was 210.4±0.68 nm and zeta potential was −32.85±0.87 mV. Nanoparticle size and zeta potential was measured after conjugation with deslorelin and transferrin. Similarly, the unconjugated nanoparticles were also treated under the same conditions as with the conjugated nanoparticles (the conjugation protocol as mentioned above).
Transport studies were conducted in bovine nasal tissue. Bovine nasal tissue was obtained from freshly slaughtered cattle, and different regions (MTA, MTP, ITP) were prepared as described in Example 13. Nanoparticles coupled to deslorelin or transferring via aldehyde sulfate moieties were prepared as described in Example 3. The nanoparticle size was measured using a Zeta Plus Analyzer (Brookhaven Instruments Limited, UK). Particle size was analyzed before and after ligand conjugation in deionized filtered water.

As for “Transferrin-AS: transferrin-aldehyde sulphate-conjugated polystyrene nanoparticles”, the Zeta potential reads like this: (Table 2, polystyrene nanoparticles) −20.62 ± 0.82 mV; (Table 6) −20.62 ± 0.82 mV. Besides, the “Measured Diameter” value (Table 2, polystyrene nanoparticles, 1:1000 dilution in filtered deionized water, includes hydrodynamic layer, n = 3) was 67.5 ± 1.0 nm. Where the note is “Table 6, 1:1000 dilution in filtered deionized water”, this substance came in with an Effective diameter of 67.5 ± 1.0 nm.
